The values that follow are results of earlier work, collected in paper PMC6189303.

The series has as its target L1-CAM (UniProt P32004).
Chain of UniProt P32004 (P32004 20-1120): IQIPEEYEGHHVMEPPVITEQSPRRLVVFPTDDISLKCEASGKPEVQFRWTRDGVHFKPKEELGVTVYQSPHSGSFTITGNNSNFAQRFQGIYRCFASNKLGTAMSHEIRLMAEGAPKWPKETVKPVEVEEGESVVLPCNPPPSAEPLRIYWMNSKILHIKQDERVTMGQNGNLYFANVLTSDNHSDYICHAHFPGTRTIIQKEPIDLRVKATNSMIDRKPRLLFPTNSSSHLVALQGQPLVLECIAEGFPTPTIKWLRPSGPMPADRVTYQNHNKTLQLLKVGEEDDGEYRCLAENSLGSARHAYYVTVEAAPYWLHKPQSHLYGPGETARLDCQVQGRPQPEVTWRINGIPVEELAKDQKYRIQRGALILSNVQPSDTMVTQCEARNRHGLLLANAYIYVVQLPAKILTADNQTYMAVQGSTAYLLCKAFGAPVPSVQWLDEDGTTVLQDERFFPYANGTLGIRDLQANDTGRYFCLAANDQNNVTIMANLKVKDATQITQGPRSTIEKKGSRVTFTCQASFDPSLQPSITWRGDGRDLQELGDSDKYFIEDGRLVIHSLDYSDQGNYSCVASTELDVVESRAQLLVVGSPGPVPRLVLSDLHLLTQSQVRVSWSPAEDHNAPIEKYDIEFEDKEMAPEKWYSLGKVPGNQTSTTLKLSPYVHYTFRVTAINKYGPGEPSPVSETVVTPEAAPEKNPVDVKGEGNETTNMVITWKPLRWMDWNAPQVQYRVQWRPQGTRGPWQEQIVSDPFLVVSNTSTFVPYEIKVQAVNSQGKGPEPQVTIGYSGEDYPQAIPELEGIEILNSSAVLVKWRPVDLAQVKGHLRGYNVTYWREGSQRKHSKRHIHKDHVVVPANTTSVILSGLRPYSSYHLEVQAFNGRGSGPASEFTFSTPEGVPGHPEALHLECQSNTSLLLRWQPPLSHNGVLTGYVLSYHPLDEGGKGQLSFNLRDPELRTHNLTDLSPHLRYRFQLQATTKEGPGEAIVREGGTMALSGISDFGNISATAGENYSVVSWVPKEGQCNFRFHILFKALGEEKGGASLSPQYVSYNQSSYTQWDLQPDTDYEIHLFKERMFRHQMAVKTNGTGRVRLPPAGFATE

Turning to Neurocan (from UniProt O14594), the equilibrium dissociation constant (Kd) was 1 nM.
